Measurements published in patent publication US20160303232A1 (Merrimack Pharmaceuticals, Inc., priority 2015, published 2016).
Entries after “also recorded” stand apart in the source; their conditions may differ. Structures can show the parent of a compound that is named as a salt.

B1: seribantumab: human monoclonal anti-ErbB3 IgG2; heavy chain SEQ ID NO:7, light chain SEQ ID NO:8 (antibody, listed as Homo sapiens)
heavy: EVQLLESGGGLVQPGGSLRLSCAASGFTFSHYVMAWVRQAPGKGLEWVSSISSSGGWTLYADSVKGRFTISRDNSKNTLYLQMNSLRAEDTAVYYCTRGLKMATIFDYWGQGTLVTVSSASTKGPSVFPLAPCSRSTSESTAALGCLVKDYFPEPVTVSWNSGALTSGVHTFPAVLQSSGLYSLSSVVTVPSSNFGTQTYTCNVDHKPSNTKVDKTVERKCCVECPPCPAPPVAGPSVFLFPPKPKDTLMISRTPEVTCVVVDVSHEDPEVQFNWYVDGVEVHNAKTKPREEQFNSTFRVVSVLTVVHQDWLNGKEYKCKVSNKGLPAPIEKTISKTKGQPREPQVYTLPPSREEMTKNQVSLTCLVKGFYPSDIAVEWESNGQPENNYKTTPPMLDSDGSFFLYSKLTVDKSRWQQGNVFSCSVMHEALHNHYTQKSLSLSPGK
light: QSALTQPASVSGSPGQSITISCTGTSSDVGSYNVVSWYQQHPGKAPKLIIYEVSQRPSGVSNRFSGSKSGNTASLTISGLQTEDEADYYCCSYAGSSIFVIFGGGTKVTVLGQPKAAPSVTLFPPSSEELQANKATLVCLVSDFYPGAVTVAWKADGSPVKVGVETTKPSKQSNNKYAASSYLSLTPEQWKSHRSYSCRVTHEGSTVEKTVAPAECS

How the values were obtained:
[1] = system: NSCLC cell lines (A549, EKVX, H358, H322M, Calu-3, H661, H441, H1355, H430); assay: 3D spheroid proliferation assay with or without HRG and chemotherapy; format: cell-based, human; conditions: 5 nM HRG; docetaxel 111 nM, pemetrexed 1111 nM; 96hrs; three cell lines most responsive to HRG
Experimental: HRG-driven ErbB3 signaling mediates survival signaling through the PI3K/AKT pathway and has been implicated as a general mechanism that imparts insensitivity to cytotoxic chemotherapy. […] Proliferation was measured, in the presence or absence of HRG, in a panel of nine cell lines using 3D spheroid cultures.

[2] = system: human ovarian epithelial carcinoma OVCAR8 cells; assay: OVCAR8 xenograft model of ovarian cancer, combination therapy study; format: in vivo, mouse; conditions: for tumor progression over time: FIGS. 7A-7C, monotherapy versus co-administration with fixed dose of seribantumab; for tumor growth, single agent: i.p., seribantumab 300 μg Q3D, irinotecan HCl 6.25 mg/kg Q7D, gemcitabine 25 mg/kg Q7D, paclitaxel 10 mg/kg Q7D, three weeks
Text: In these xenograft studies, the mice were obtained from Charles River Laboratories. The mice were housed in Tecniplast® Individually Ventilated polycarbonate (Makrolon®) Cages (IVC) set in climate-controlled rooms and had free access to food and acidified water. A cell suspension of 8×10^6 cells/mouse, mixed 1:1 in reduced growth factor Matrigel™ (BD Biosciences, Cat #354230) and PBS was implanted by subcutaneous injection into the left flank of female, 4-5 week old nu/nu nude, Crl:NU-Foxn1^nu mice. Tumors were allowed to reach 250 mm^3 in size before randomization.
Mice were randomized as above into 8 groups of 10 mice each. […] Treatment continued for three weeks. Tumors were measured twice weekly and tumor volume calculated.

[3] = system: HRG positive (HRG+) tumors; assay: Previous randomized phase II clinical trials of seribantumab plus standard of care, by HRG expression; format: in vivo, human; conditions: seribantumab added to standard-of-care therapy; patients with HRG expression at or above threshold / HRG+ tumors
[4] = Clinical studies of seribantumab co-administered with full doses of chemotherapy (MTD, safety); format: in vivo, human; conditions: co-administered with standard doses of pemetrexed, paclitaxel or cabazitaxel; 40 mg/kg loading dose then weekly 20 mg/kg
[5] = Population pharmacokinetic analysis of seribantumab, combined phase I and phase II studies, two-compartment model; format: in vivo, human
Text: Covariate selection evaluated potential relationships between baseline covariates (sex, race, age, weight, intended-dose, and study/indication) and volume of distribution and clearance. The results indicated significant relationships between weight, sex, and clearance, with the final parameter estimates provided in Table 1. […] In the presence of the relationship between weight and clearance, no significant relationship between volume (V) and weight (WT) were observed.

[6] = fixed effect, final population PK estimate, 499 patients

Molecule | effect of HRG on inhibition of cell viability by chemotherapy (HRG-induced resistance) [1] | tumor progression over time [2] | tumor growth, single agent [2] | other results
CC(=O)O[C@@]12CO[C@@H]1C[C@H](O)[C@@]1(C)C(=O)[C@H](O)C3=C(C)[C@@H](OC(=O)[C@H](O)[C@@H](NC(=O)OC(C)(C)C)c4ccccc4)C[C@@](O)([C@@H](OC(=O)c4ccccc4)[C@H]21)C3(C)C [docetaxel, 1,7β,10β-trihydroxy-9-oxo-5β,20-epoxytax-11-ene-2α,4,13α-triyl 4-acetate 2-benzoate 13-{(2R,3S)-3-[(tert-butoxycarbonyl)amino]-2-hydroxy-3-phenylpropanoate}] | induces resistance; also recorded: decreased |  |  | 
Nc1ccn([C@@H]2O[C@H](CO)[C@@H](O)C2(F)F)c(=O)n1 [gemcitabine] |  | began to progress over time | inhibited tumor growth | 
CCc1c2c(nc3ccc(OC(=O)N4CCC(N5CCCCC5)CC4)cc13)-c1cc3c(c(=O)n1C2)COC(=O)[C@]3(O)CC [irinotecan HCl] |  | began to progress over time | inhibited tumor growth | 
CC(=O)O[C@H]1C(=O)[C@@]2(C)[C@H]([C@H](OC(=O)c3ccccc3)[C@]3(O)C[C@H](OC(=O)[C@H](O)[C@@H](NC(=O)c4ccccc4)c4ccccc4)C(C)=C1C3(C)C)[C@]1(OC(C)=O)CO[C@@H]1C[C@@H]2O [paclitaxel] |  | began to progress over time | inhibited tumor growth | 
Nc1nc(=O)c2c(CCc3ccc(C(=O)N[C@@H](CCC(=O)O)C(=O)O)cc3)c[nH]c2[nH]1 [pemetrexed, (2S)-2-{[4-[2-(2-amino-4-oxo-1,7-dihydropyrrolo[2,3-d]pyrimidin-5-yl)ethyl]benzoyl]amino}pentanedioic acid] | induces resistance; also recorded: decreased |  |  | 
B1 |  |  | significantly suppressed tumor growth | progression-free survival (PFS) [3]: improved progression-free survival; also recorded: increased PFS; maximum tolerated dose (MTD) [4]: no MTD was identified; also recorded: no maximum tolerated dose (MTD) reached; CL [5, 6]: 3.15 L/wk; Q [5, 6]: 2.92 L/wk; V [5, 6]: 3.23 L; V2 [5, 6]: 2.68 L; Cov CL and V ([5]; random effect): 27%; Omega CL ([5]; random effect): 36%; Omega V ([5]; random effect): 37%
